The nature of the series: soluble on expression in E. coli; label from the status in PepcDB or PDB records.
Regarding “MQLKTEVFLVEKEILVYIQTKSIGIEDNSIKLKMTPLLKKFANIGDKVYLKHSTFMLPTKIKAKKEDEVLLEFPSLTPEKPLGDRRNVRVLSDPENPVKVRFNEITKEVYDISEVGFSIKCGMEEIDEILKNKEISEVEIYLPNLEEWIKGSARLVNVREFENGDILCGYELFLDTPDEVKVRFYIYERVKEILKGEK”, the “soluble on expression in E. coli” value is “not soluble”.
With “MLSYRHAFHAGNHADMLKHFTLFLVLQYFNRKDKPYWYIDTHGGAGVYNLEGSEAQKVGEYRQGIALLRQAQNLPAELSDFAAHIQKILPSPKLYCGSPWLAQSLTRVGDKLRLFELHPTDFVHLQNNMGEAGLGKRGQVLREDGYKGLISLLPPPPRRATVLIDPPYEEKQDYRRVTETLKAALKRFESGCYLIWYPCLSREESRKLPEELKKLLPDNYLHAELHVHAPKADGFGMHGSGMFVINPPYLLAEQLAANLPALTRLLAQDEGSRYLLDSKIR” the entry was “not soluble”; with “MGSSHHHHHHSSGLVPRGSHMMEVGFLGLGIMGKAMSMNLLKNGFKVTVWNRTLSKCDELVEHGASVCESPAEVIKKCKYTIAMLSDPCAALSVVFDKGGVLEQICEGKGYIDMSTVDAETSLKINEAITGKGGRFVEGPVSGSKKPAEDGQLIILAAGDKALFEESIPAFDVLGKRSFYLGQVGNGAKMKLIVNMIMGSMMNAFSEGLVLADKSGLSSDTLLDILDLGAMTNPMFKGKGPSMNKSSYPPAFPLKHQQKDMRLALALGDENAVSMPVAAAANEAFKKARSLGLGDLDFSAVIEAVKFSRE”, “soluble”; with “MTYLAVVLNGPKAKNGRKVFDSFLEQNRQMFWNRELTSACESITYMGFMRPGTLFVSGPASQLTVLKDAWARRILKPAMGYTITSLGDLGAIQQVEQMHFVPLGDVICDAVAQLNRQGLAATEQAIRQYVARHCPHVAPPGIEMVRQTITSLLSTGFVYKMADHYFVSVPTNSPMRPPAKAATKTTKTTVECQTGASMMCPQQTSTSSDEHVIEPAKKDHKKCQNSNRRSIFARLFSRGMKPQTIMPSASPIHVGGPPTPPPAAMLPTKNKYPTYHHDLNEECQRKARRRNHPRRGETQKLLSSSSECLKYYPVDMPETRPTRRRARMASPLRSSTPNNSDSAYSISPPHTDSNEEAGSISDSEINHTYININKFRRQNFDSTQFEDLTGATATTSEEPEILGRHIRGVLISNL”, “not soluble”.
With “MSWSDIINNNLIGSGNVSKAAILGFDGAVWAKSDNFNISVEEAVAAGKAFTSLDALLGTGLRLEGQKFLVLNADNDRIIGKQGGSGFFIYKTIQAVIISIYEKGLQPEMCSKTTGALADYFRSIKY” the entry was “not soluble”.
With “MPPLRQFLNRLLALTIRMQNVIFERFELLLSQQIETAIANGIFEAGVETLRAERFTIESCESVYTHPDTGSVTNYLKVEQVQRNNIRTAVEMLEFAAKYQGQLMVNQKSSNAAVSIPTHSIFDCDGGVVPRVLLVRPQKETRVPVEQLESSTWQQVSAEEFVTAWSREVDELPRFTTDYLHLVTGILLPIWKILPQKNSRVFRLQTSDGQKILGRVVHASDIQTVTEQLGLKNKLEHHHHHH” the entry was “soluble”.
As to “MGSDKIHHHHHHMKHTLLIKDWLYSFLSLWFPRCCVVCGGSLAKGEECICTMCNINLPRTDYHLRKDNPVEKLFWGKFPLERATSFFFYRKGSDFRQVLHQLKYGGQKEIGAIMGRYMASELQASDFFHGVDVIIPIPLHKKKQQIRGYNQSEWISRGIMAVTGIPVDTEAIIRRKNTETQTQKSALERWENVDGIFELHRSEYLAGKHILIVDDVLTTGATTVACASRLAEIEGVRISVLTLAMAE”, the “soluble on expression in E. coli” value is given as “not soluble”.
Then “MSLSELIFYTNPMSRGRIARWMLEEVGIPYKTEILGFETSMKSPAYRLINPMAKVPAIKHGDTIVTEAAAICAYLADAFPGANLAPTPKARGLYYRWMFFAAGPLEMAASMKAMGFEVPKEKLRMAGCGSYADVMNTLERAVSENRFIAGDLFTAADVYVGAHVGWGLHFGTIEKRPAFTDYMAHLTDRPAFKRAAQLDEEAAKELQAAGEGHHHHHH”, with “soluble”; and “WIVQKQKKWSSDPVGTQKNVFDLLIKKAQKTTFGKDHAFDSIQSHADYCRLVPVREYEGFKEYIELVKQGTQDVLWPGIPLYFAKTSGTTSGVKYIPITKDSIGYHINGAKDALLNYVHQTGKSEFLDKKLIFLSGSPIMEKKNGIYIGRLSGIVNHHVPGYLRGNQLPSFETNCVDDWESKLEKIVDETIDQDMSLISGIPPWVQMYFDRIEERTHKKIKDVFPSFSLLVYGGVNFSPYKRKLIESIGKEIDTVETYPASEGFIAFQDIPGQAGLLLLLNSGIFYEFIPVEEYGSANPTRLTIGEVKTDVNYALVMSTNAGLFAYSIGDTVKFVSTAPYRIVVTGRVKHFISAFGEHVIGEEVEQAMKNALLKHPEVSITEFTVAPQVTPEEGLPYHEWLIEFISMPADMDQFAHDLDQEMIQKNIYYKDLIVGNILRPLVITSISAGGF”, with “not soluble”.
Take “MAHHHHHHMRAAPTRLAPSTVASLGRSHCGSQAYHLDAAGAAGWRRRRRLTGVSMTTTHTVAPAVSALPFSLSTARRTYYWPYPENLVPEGATTSPFQSSPVPSVRERIIREYALGPLFGSRTPCCVLGFAGTARDVAACKRDVRRWVARALGKSEADVELGALVQAKEMLLHRSGTDESPRLGDGPGSRPDAEQRRVTRYARLPVQARTLLEVYLPGEEHGEVDAAADADATILAHGYFLQEQLHRHMTTTASSGSDPTGRRDSEDCQPEEPARKMQSHCQGCSEPNDEADVKSSVAALHDVCGVIYCEVPVLDESDFAFDQLCGKEVDDETTERVTDRWTRRAMQQQPQL”: the “soluble on expression in E. coli” value was “soluble”.
Then “MGSDKIHHHHHHMADNTDNLNSFRALALQVTCHAVNQATDRHEARSLMQNSINRLAQQIAASIAFIGFDCRLIVLPEYFLTGFPMGDSLAGWAEKACIEMAGAEYEALGKIAQKHKIFLAGNAYEVDPNFPGLYFQTCFILDPSGSIVLRYRRLNSLFAPTPHDVWDKYLDCYGLEGVFPVAKTAIGNLAALASEEILYPEVARCLAMRGAEIFVHSTSEVYNKNLTPKDAAKITRAVENMAYVVSANTAGIANIAIPIASADGGSKIIDHRGIVLAETGAGESMAAFAEIDLGALRRDRRRPGLHNLLARQRFELYAESYHQSHFYPANTMLEGEIDRKHFLQTQQATIDRLAQLGII”, with “not soluble”.
As to “SELPPEPQANGEAVGAGGGPIYYIYEEEEEEEEEEEEPPPEPPKLVNDKPHKFKDHFFKKPKFCDVCARMIVLNNKFGLRCKNCKTNIHEHCQSYVEMQRCFGKIPPGFHRAYSSPLYSNQQYACVKDLSAANRNDPVFETLRTGVIMANKERKKGQADKKNPVAAMMEEEPESARPEEGKPQDGNPEGDKKAEKKTPDDKHKQPGFQQSHYFVALYRFKALEKDDLDFPPGEKITVIDDSNEEWWRGKIGEKVGFFPPNFIIRVRAGERVHRVTRSFVGNREIGQITLKKDQIVVQKGDEAGGYVKVYTGRKVGLFPTDFLEEI”, the “soluble on expression in E. coli” value was “soluble”.
Then “MDPGPWNECVPVRMPDDPQIHMVSNTRQAVELLTKRWPVSHGQAYQAAIDICMAVLERESPAYVARVAFVAAAKEAQVNIVS”, with “not soluble”; and “MDFELCPKFEKTFSILGKKWNGLIIDVLLEDGPQRFKNLARRIPKCSDRVLVVRLKELEENGIVSRVTHCDSALIEYRLTTKGQDLRQVMDTVHNWSDKWFSPAES”, with “not soluble”; and “MGSDKIHHHHHHSCTSQKKKLAKMHTEDTIVKAQLIQHTKESLLSPYQHVNFQLDLTKNKTAFYGYNTGSKWELWVKTDSTITFKYDGEEMVFSSAKTTEAQDNPVVKYHSKTIVSNPSQPGLKKSITVMIRDEKYLDEIQGTYVPLSVRIEVEDHTNKTTVIYAGGGFYVVNPIIHDIWVLDSMSNVKVSAENFPLGAPRLEFHLDGGKIYGFSGCNEITATFYTIQNQIQLNSEISTLKSCVHVPLEPLFMGALANKRYYYSFEERRLKLKHRDGSILSFKKVD”, with “not soluble”.
Then “MGSDKIHHHHHHMLSNLWKRQAPQMVGIDIGSHEIKAILLSKTADGYKILSHAAVPVKKGAVNDHEIRDSDAVLESLRLIKRSLPKSVKYAAAAVSGSAVMTKVIYMDASLSEEEMETQIEIEADNLIPYSLDEVSIDFETLSVNSADPSKVDVLLSACRTENIDARVDSLDDINLEAKVIDVEGYALGRSFELVAAQLPDGAEDKVVALVDIGANMTTFAVVEKGETTFIREQAFGGEQFTQSILSFYGMSHEQAEKAKLEGDLPRNYMFEVLSPFQTQLLQQIKRTLQIYCTSSGKDKVDHIVLCGGTSKLEGMANLLTNELGVHTIIADPFLGCLHADEQVKTQLQPTINKYMVACGLALRSYSQWRT”, with “not soluble”; and “QDIAADIAPERVSNDPLVNLGEAVVEEEEKVGALEDLFMETKQDGVNTDDPIAHLKFSMQREDDYLIRDVEKPEPAPAKTIENTRQVVDDSFSIHSEFDIPNLIPEDWLGGVATSKESVEPAAEQAKQAAFIPEDFAHTKPVSPQASVVQPDVNQPQQPQYEAPLSHATSNVTQRAEPVSQKWEEVTQAFVPSAQPTQPETKAKEAQQGFVSNESLAIESVAHSSDIGKAFYEGLGISNPDLISNEALLFKQMGACLRLCIDNLQKDLHEVESLKGEQGLSEADSNLAELMLTLNSQNLLSPNELVEQMLDELNDHQIIFNKALNELLIEQSETNDPVMFANDVASKSMFTTKSKLWGEYLEFYANNRRQMNETSLKGLIKKNYTKAIKGSHA”, with “not soluble”; and “MGSDKIHHHHHHVDKFLYIAMSGAKQNLNSLSIRANNLANANTDGFKADLEQSRSMQAFGEGLPTRVFAMTENPQASFRHGPINSTARDLDVAVKGDGWIAVEDADGNEAYTRAGSLKFDETGLLTNSQGRPVMGDAGPIVLPLPIDKVEIAQDGTITVRPQGATAEVVEEVARIKLVNPGNQNLMRGDDGLFRMMNGTTAPQDETVALESRAVEGSNVNPVEEMVALIDIQRQFELQVKMMKTAEENDKASAQLVRIG”, with “not soluble”.
Then “MPSLFKRSLLPKLRSFPLAAEAFTTLTGAAQFRRTLLEQIAQARRRIYIVALYLQQDEAGQEILDALHAAKAARPELEVVVVVDWLRAQRGLIGAGKQPGNSAWYQQMTRTHASEVPIYGVPVQTRELFGVLHLKGFIIDDCVLYSGASLNNVYLHKFDKYRFDRYHLLHNQALADSMHHLVQHGLVESRAVHRLDLPNLPTTRSLRNDIGDLRSRLKHATYDTTAGGLDKSGLSVSPLLGVGKGNPLNRVICELIAGAQRQLTICTPYFNLPLPVTREINRALERGVKIDIIVGDKTANDFYIPPSEPFKVIAALPYLYEISLRRFAKRHQKVIDNGQLNLHLWRDGDNTYHLKGMWVDERYTLLTGNNLNPRAFRLDLENALLLDDPKGELLQARNAEQAEIYRHTRRIEHFQYLDSLVDYPEAVGKFLRRVSRVRIERLLYRMLLEHHHHHH”, with “not soluble”; and “METTHSLTTDNAPTEDQPILSVTDLHMVSGTHLPELKIYAGLSLVHCGRENSATTLSMTLAGRMKPISGTIELKVQDSDKVLTTPRQLHKAVALAGVPELDSLERLVPVTAAVREQLAWSQPWYRRVPRDVTKSETFINAAKLLDLPNSKEFARQSIGDLDPLTRFRLRIALALIARPHTDLLIVDDIDQIRSLRLRADLLRELKNIAASIPVVAMSANDDVDKIADHEIHVAGALQRKQKAKA”, with “not soluble”.

These data come from the DeepSol protein solubility set.
